Here are results for one protein from publication PMC9034062, “Phospholipids alter activity and stability of mitochondrial membrane-bound ubiquitin ligase MARCH5” (Life Science Alliance, 2022).

This data set deals with the molecule itself. Kind of data set: cross-linking; BS3 cross-linker added to 19.4 uM MARCH5 in 50 mM Hepes pH 7.7, 100 mM NaCl, 5% glycerol, 0.1 mM TCEP, 0.001% LMNG; without lipid (control) and with cardiolipin at 1:10 molar ratio of protein to lipid; samples at 0, 15, 30 and 60 min; SDS-PAGE.

B1: MARCH5 (enzyme, human, UniProt Q9NX47 1-278, looked up)
chain: MPDQALQQMLDRSCWVCFATDEDDRTAEWVRPCRCRGSTKWVHQACLQRWVDEKQRGNSTARVACPQCNAEYLIVFPKLGPVVYVLDLADRLISKACPFAAAGIMVGSIYWTAVTYGAVTVMQVVGHKEGLDVMERADPLFLLIGLPTIPVMLILGKMIRWEDYVLRLWRKYSNKLQILNSIFPGIGCPVPRIPAEANPLADHVSATRILCGALVFPTIATIVGKLMFSSVNSNLQRTILGGIAFVAIKGAFKVYFKQQQYLRQAHRKILNYPEQEEA
notes: human MARCH5, cDNA codon-optimised for yeast (GenScript); Integral membrane protein, kept in the detergent LMNG; By the printed primers the TEV site is ENLYFQ/SQF, so ENLYFQ probably stays at the C-terminus after cleavage (surmised); also called M5; source: S. cerevisiae PAP1500, purified (DDM solubilisation, Ni resin with exchange to LMNG, TEV cleavage, reverse IMAC); not shown: yEGFP, …
Consider B1, for which the binding result is given as “binds”.
